{"source": "patent US20190170753A1", "about": "(ICAHN SCHOOL OF MEDICINE AT MOUNT SINAI, published 2019)", "assay_in_all_cases": "peptide EIA, 2 ug/mL IgG;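 further: purified mouse IgG binding to individually well-coated synthetic peptides, detected with peroxidase anti-mouse IgG Fc and o-phenylenediamine, IgG incubated at least 1 h at room temperature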", "key": {"[1]": {"molecular_target": "T1, HCV core peptide 36 (hepatitis C virus, N-terminal biotin; C-terminal amide)", "T1 construct": "range 71-85"}, "[2]": {"molecular_target": "T2, HCV core peptide 27 (hepatitis C virus, N-terminal biotin; C-terminal amide)", "T2 construct": "range 53-67"}, "[3]": {"molecular_target": "T3, HCV core peptide 40 (hepatitis C virus, N-terminal biotin; C-terminal amide)", "T3 construct": "range 79-93"}, "[4]": {"molecular_target": "T4, HCV core peptide 21 (hepatitis C virus, N-terminal biotin; C-terminal amide)", "T4 construct": "range 41-55"}, "[5]": {"molecular_target": "HCV core peptide 73 (hepatitis C virus, N-terminal biotin; C-terminal amide)"}, "[6]": {"molecular_target": "HCV core peptide 78 (hepatitis C virus, N-terminal biotin; C-terminal amide)"}, "[7]": {"molecular_target": "T5, HCV core peptide 61 (hepatitis C virus, N-terminal biotin; C-terminal amide)", "T5 construct": "range 121-135"}, "[8]": {"molecular_target": "T6, HCV core peptide 31 (hepatitis C virus, N-terminal biotin; C-terminal amide)", "T6 construct": "range 61-75"}, "[9]": {"molecular_target": "T7, HCV core peptide 35 (hepatitis C virus, N-terminal biotin; C-terminal amide)", "T7 construct": "range 69-83"}, "[10]": {"molecular_target": "T8, HCV core peptide 20 (hepatitis C virus, N-terminal biotin; C-terminal amide)", "T8 construct": "range 39-53"}, "[11]": {"molecular_target": "T9, HCV core peptide 53 (hepatitis C virus, HELM PEPTIDE1{[O=C1N[C@H]2[C@H](CS[C@H]2CCCCC(=O)[*:2])N1].S.G.S.G.P.S.W.G.P.T.D.P.R.R.R.S.R.N.L.[am]}$$$$V2.0; SMILES …)", "T9 peptide": "SGSGPSWGPTDPRRRSRNL"}, "[12]": {"molecular_target": "T10, HCV core peptide 26 (hepatitis C virus, N-terminal biotin; C-terminal amide)", "T10 construct": "range 51-65"}, "[13]": {"molecular_target": "T11, HCV core peptide 55 (hepatitis C virus, HELM PEPTIDE1{[O=C1N[C@H]2[C@H](CS[C@H]2CCCCC(=O)[*:2])N1].S.G.S.G.P.T.D.P.R.R.R.S.R.N.L.G.K.V.I.[am]}$$$$V2.0; SMILES …)", "T11 construct": "also called aa 109-123", "T11 peptide": "SGSGPTDPRRRSRNLGKVI"}, "[14]": {"molecular_target": "HCV core peptide 64 (hepatitis C virus, N-terminal biotin; C-terminal amide)"}, "[15]": {"molecular_target": "T12, HCV core peptide 48 (hepatitis C virus, HELM PEPTIDE1{[O=C1N[C@H]2[C@H](CS[C@H]2CCCCC(=O)[*:2])N1].S.G.S.G.G.W.L.L.S.P.R.G.S.R.P.S.W.G.P.[am]}$$$$V2.0; SMILES …)", "T12 construct": "also called aa 95-109", "T12 peptide": "SGSGGWLLSPRGSRPSWGP"}, "[16]": {"molecular_target": "T13, HCV core peptide 12 (hepatitis C virus, N-terminal biotin; C-terminal amide)", "T13 construct": "range 23-37"}, "[17]": {"molecular_target": "HCV core peptide 74 (hepatitis C virus, N-terminal biotin; C-terminal amide)"}, "[18]": {"molecular_target": "T14, HCV core peptide 19 (hepatitis C virus, N-terminal biotin; C-terminal amide)", "T14 construct": "range 37-51"}, "[19]": {"molecular_target": "HCV core peptide 88 (hepatitis C virus, N-terminal biotin; C-terminal amide)"}, "[20]": {"molecular_target": "T15, HCV core peptide 79 (hepatitis C virus, N-terminal biotin; C-terminal amide)", "T15 construct": "range 157-171"}, "[21]": {"molecular_target": "HCV core peptide 77 (hepatitis C virus, N-terminal biotin; C-terminal amide)"}, "[22]": {"molecular_target": "HCV core peptide 85 (hepatitis C virus, N-terminal biotin; C-terminal amide)"}, "[23]": {"molecular_target": "HCV core peptide 89 (hepatitis C virus, N-terminal biotin; C-terminal amide)"}, "[24]": {"molecular_target": "HCV core peptide 76 (hepatitis C virus, N-terminal biotin; C-terminal amide)"}, "[25]": {"molecular_target": "T16, HCV core peptide 23 (hepatitis C virus, N-terminal biotin; C-terminal amide)", "T16 construct": "range 45-59"}, "[26]": {"molecular_target": "T17, HCV core peptide 49 (hepatitis C virus, HELM PEPTIDE1{[O=C1N[C@H]2[C@H](CS[C@H]2CCCCC(=O)[*:2])N1].S.G.S.G.L.L.S.P.R.G.S.R.P.S.W.G.P.T.D.[am]}$$$$V2.0; SMILES …)", "T17 peptide": "SGSGLLSPRGSRPSWGPTD"}, "[27]": {"molecular_target": "HCV core peptide 44 (hepatitis C virus, N-terminal biotin; C-terminal amide)"}, "[28]": {"molecular_target": "HCV core peptide 59 (hepatitis C virus, N-terminal biotin; C-terminal amide)"}, "[29]": {"molecular_target": "T18, HCV core peptide 24 (hepatitis C virus, N-terminal biotin; C-terminal amide)", "T18 construct": "range 47-61"}, "[30]": {"molecular_target": "T19, HCV core peptide 4 (hepatitis C virus, N-terminal biotin; C-terminal amide)", "T19 construct": "range 7-21"}}, "data": [{"binder": "Neo4 mouse monoclonal antibody (antibody, V domains shown, Mouse hybridoma antibody, isotype IgG1, purified with Protein G; also called HCV Neo4) VH: QIQLKESGPAVIKPSQSLSLTCIVSGFSITSSVYCWQWIRQPPGKGLEWMGRICYDGSVDYSPSITSRGTISRDTSLNKVFFQLSSVTNEDTAMYYCSRENHIDYYDTTYPSFDVWGAGTTVTVSS VL: DIVLTQSPASLIVSLGQRATISCRASKSVNEYGYTYMHWYQQKPGLPPKLLIYLASNLDSGVPARFSGSGSGTDFTLNIHPVEEEDAATYYCQHSRELPYTFGGGTKLEIKR", "values": [{"measurement": "OD (A492 nm)", "setting": "[1]", "value": 0.05, "unit": "OD"}, {"measurement": "OD (A492 nm)", "setting": "[2]", "value": 0.04, "unit": "OD"}, {"measurement": "OD (A492 nm)", "setting": "[3]", "value": 0.05, "unit": "OD"}, {"measurement": "OD (A492 nm)", "setting": "[4]", "value": 0.05, "unit": "OD"}, {"measurement": "OD (A492 nm)", "setting": "[5]", "value": 0.04, "unit": "OD"}, {"measurement": "OD (A492 nm)", "setting": "[6]", "value": 0.06, "unit": "OD"}, {"measurement": "OD (A492 nm)", "setting": "[7]", "value": 0.05, "unit": "OD"}, {"measurement": "OD (A492 nm)", "setting": "[8]", "value": 0.05, "unit": "OD"}, {"measurement": "OD (A492 nm)", "setting": "[9]", "value": 0.04, "unit": "OD"}, {"measurement": "OD (A492 nm)", "setting": "[10]", "value": 0.05, "unit": "OD"}, {"measurement": "OD (A492 nm)", "setting": "[11]", "value": 0.96, "unit": "OD"}, {"measurement": "OD (A492 nm)", "setting": "[12]", "value": 0.04, "unit": "OD"}, {"measurement": "OD (A492 nm)", "setting": "[13]", "value": 0.97, "unit": "OD"}, {"measurement": "OD (A492 nm)", "setting": "[14]", "value": 0.04, "unit": "OD"}, {"measurement": "OD (A492 nm)", "setting": "[15]", "value": 0.04, "unit": "OD"}, {"measurement": "OD (A492 nm)", "setting": "[16]", "value": 0.07, "unit": "OD"}, {"measurement": "OD (A492 nm)", "setting": "[17]", "value": 0.05, "unit": "OD"}, {"measurement": "OD (A492 nm)", "setting": "[18]", "value": 0.05, "unit": "OD"}, {"measurement": "OD (A492 nm)", "setting": "[19]", "value": 0.05, "unit": "OD"}, {"measurement": "OD (A492 nm)", "setting": "[20]", "value": 0.05, "unit": "OD"}, {"measurement": "OD (A492 nm)", "setting": "[21]", "value": 0.05, "unit": "OD"}, {"measurement": "OD (A492 nm)", "setting": "[22]", "value": 0.05, "unit": "OD"}, {"measurement": "OD (A492 nm)", "setting": "[23]", "value": 0.05, "unit": "OD"}, {"measurement": "OD (A492 nm)", "setting": "[24]", "value": 0.05, "unit": "OD"}, {"measurement": "OD (A492 nm)", "setting": "[25]", "value": 0.05, "unit": "OD"}, {"measurement": "OD (A492 nm)", "setting": "[26]", "value": 0.05, "unit": "OD"}, {"measurement": "OD (A492 nm)", "setting": "[27]", "value": 0.05, "unit": "OD"}, {"measurement": "OD (A492 nm)", "setting": "[28]", "value": 0.05, "unit": "OD"}, {"measurement": "OD (A492 nm)", "setting": "[29]", "value": 0.05, "unit": "OD"}, {"measurement": "OD (A492 nm)", "setting": "[30]", "value": 0.06, "unit": "OD"}]}]}
